Patent publication US20250018040A1 (UNITED STATES OF AMERICA AS REPRESENTED BY THE SECRETARY …, published 2025)

Experiments:
[1] = molecular target: T1, shed mesothelin (UniProt Q13421 296-585, limits assumed); assay: Western blot of OVCAR-8 growth medium
T1 construct: also called Shed MSLN; mesothelin shed by OVCAR-8 cells
Description: (§1) A Western blot assay was carried out to test the ability of mAb 15B6 or control mAb MN to bind to full length Fc-mesothelin and shed mesothelin, which had been shed by OVCAR-8 cells. Equal amounts of OVCAR-8 cell growth media were collected. The proteins were resolved by SDS gel electrophoresis. The bands were detected by Western blot using the antibodies MN and/or 15B6. Full length mesothelin attached to an Fc protein was used as positive control and reacts with both antibodies.

[2] = molecular target: T2, full length Fc-mesothelin (UniProt Q13421 296-598, limits assumed); assay: Western blot
T2 construct: it is written here as in the name; also called Fc-MSLN; full length mesothelin attached to an Fc protein; not shown: Fc protein
T2 sequence (Q13421 other isoform, or with tags, fused parts or gaps limits assumed): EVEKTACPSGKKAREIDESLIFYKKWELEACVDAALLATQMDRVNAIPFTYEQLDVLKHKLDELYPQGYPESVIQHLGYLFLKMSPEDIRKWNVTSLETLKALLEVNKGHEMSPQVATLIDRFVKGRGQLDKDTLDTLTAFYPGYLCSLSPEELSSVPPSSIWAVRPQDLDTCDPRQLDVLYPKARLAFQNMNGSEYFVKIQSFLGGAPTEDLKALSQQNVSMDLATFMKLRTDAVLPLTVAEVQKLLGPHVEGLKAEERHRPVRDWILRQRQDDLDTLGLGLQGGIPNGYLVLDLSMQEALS
Description: as §1

[3] = molecular target: T2, full length Fc-mesothelin; assay: flow cytometry: Fc-mesothelin bound to 293T cells transfected with the CAR vector, detected with fluorescent anti-Fc antibody (column: Expressed by 293T cells?)
Description: 293T cells were independently transduced with the CAR-T vectors. Expression of each Fv by the 293T cells was tested. The CAR-T vectors were transfected into 293T cells. After two days of culture, Fc-mesothelin was bound to the cells. The bound Fc protein was detected by a secondary anti-Fc-antibody conjugated to a fluorescent dye using flow cytometry.

T1 sequence (Q13421 other isoform, or with tags, fused parts or gaps limits assumed): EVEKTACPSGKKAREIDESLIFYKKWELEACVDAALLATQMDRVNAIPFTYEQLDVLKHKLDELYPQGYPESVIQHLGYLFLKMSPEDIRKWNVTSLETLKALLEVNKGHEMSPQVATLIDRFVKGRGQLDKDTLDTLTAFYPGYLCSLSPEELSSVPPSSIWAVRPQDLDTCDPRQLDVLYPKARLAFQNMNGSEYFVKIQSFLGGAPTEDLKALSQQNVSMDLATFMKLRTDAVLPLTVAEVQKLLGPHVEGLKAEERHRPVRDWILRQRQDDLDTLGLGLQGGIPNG

Row | Binder | binding result [1] | binding result [2] | binding result [3]
1 | mAb 15B6 (antibody, mouse IgG2b, V domains shown, Murine IgG2b; For flow cytometry it was conjugated to ALEXA FLUOR 647; also called monoclonal antibody 15B6; 15B6 (IgG2b)) VH: EVQLQQSGPVLVKPGASVKISCKASGYSFTGYYMHWVRQSLVKRLEWIGRINPYTGVPSYKHNFKDKASLTVDKSSSTAYMELHSLTSEDSAVYYCARELGGYWGQGTTLTVSS VL: QAVVTQESALTTSPGETVTLTCRSSTGAVTTGNYPNWVQEKPDHLFTGLIAGTNNRAPGVPARFSGSLIGDKAALTITGAQTEDEAIYFCALWFSSHWVFGGGTKLTVL | no binding | binds | 
2 | CAR Construct No. 2, 15B6 scFv (Vh-lin-Vl) (other, Chimeric antigen receptor on 293T cells or T cells) MEVQLQQSGPVLVKPGASVKISCKASGYSFTGYYMHWVRQSLVKRLEWIGRINPYTGVPSYKHNFKDKASLTVDKSSSTAYMELHSLTSEDSAVYYCARELGGYWGQGTTLTVSSGGGGSGGGGSGGGGSQAVVTQESALTTSPGETVTLTCRSSTGAVTTGNYPNWVQEKPDHLFTGLIAGTNNRAPGVPARFSGSLIGDKAALTITGAQTEDEAIYFCALWFSSHWVFGGGTKLTVLTSTTTPAPRPPTPAPTIASQPLSLRPEACRPAAGGAVHTRGLDFACDIYIWAPLAGTCGVLLLSLVITKRGRKKLLYIFKQPFMRPVQTTQEEDGCSCRFPEEEEGGCELRVKFSRSADAPAYQQGQNQLYNELNLGRREEYDVLDKRRGRDPEMGGKPRRKNPQEGLYNELQKDKMAEAYSEIGMKGERRRGKGHDGLYQGLSTATKDTYDALHMQALPPR |  |  | binds
